# Where a chain is given by its changes, count along the chain named.
# B1: Y5_Y6_Y7 (structured_DNA)
# DNA 1: CTTTTCCTCTACACCGTCTTTATATATCGAATTAAGAAGTCGCAATGAGTATTACTTTGTAAAT
# DNA 2: CAAGGGTAAACGAACCTTGCGCTTTCTTAAATATTCGATATATAAAGACGGTGTAGAGGAAAAG
# DNA 3: ATTTACAAAGTAATACTCATTGCGACTTCTTAATTTAAGAAAGCGCAAGGTTCGTTTACCCTTG
# B2: Y5_Y6_Y8 (structured_DNA)
# DNA 1: B1 DNA 1
# DNA 2: B1 DNA 2
# DNA 3: B1 DNA 3 with T51A, T52A
# Tests used:
# Dps [1] = target: T1, Dps (Escherichia coli, UniProt P0ABT2 1-167); experiment: EMSA; 2-fold Dps excess: triplex significantly reduced; EMSA: 50 mM Tris-HCl pH 7.5, 0.1 mM EDTA, 50 mM NaCl, 37°C 30 min; footprinting: 50 mM Tris-HCl pH 8.0, 0.1 mM EDTA, 0.1 mM DTT, 10 mM MgCl2, 50 mM NaCl, 5 mg/m
# Dps [2] = target: T1, Dps; experiment: AFM; bound protein slightly shifted from center; EMSA: 50 mM Tris-HCl pH 7.5, 0.1 mM EDTA, 50 mM NaCl, 37°C 30 min; footprinting: 50 mM Tris-HCl pH 8.0, 0.1 mM EDTA, 0.1 mM DTT, 10 mM MgCl2, 50 mM NaCl, 5 mg/m
Binder,binding result (Dps [1]),binding result (Dps [2])
B1,binds,
B2,,binds

# Reference: publication PMC4433220
